In article PMC4447340:

Target: Cyclophilin J (human) (UniProt Q9H2H8)
UniProt Q9H2H8, sequence (Q9H2H8 whole entry): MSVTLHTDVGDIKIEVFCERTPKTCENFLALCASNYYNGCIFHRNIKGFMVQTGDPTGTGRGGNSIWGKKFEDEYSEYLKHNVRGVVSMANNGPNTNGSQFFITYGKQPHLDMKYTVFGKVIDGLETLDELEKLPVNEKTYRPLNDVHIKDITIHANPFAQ

Cyclosporin A (peptide) gave an inhibition of the PPIase activity of CYPJ (chymotrypsin-coupled assay, 13.1 μM CYPJ, 1-16 μM CsA) of 12 µM.
